In patent US20240254227A1 (Alector, published 2024):

T1: murine CD300LB on wild type mouse bone marrow macrophages (mouse, UniProt Q3U497 18-209)
T1 construct: Endogenous receptor on primary cells; also called mCD300LB; Wt BMM
T1 sequence: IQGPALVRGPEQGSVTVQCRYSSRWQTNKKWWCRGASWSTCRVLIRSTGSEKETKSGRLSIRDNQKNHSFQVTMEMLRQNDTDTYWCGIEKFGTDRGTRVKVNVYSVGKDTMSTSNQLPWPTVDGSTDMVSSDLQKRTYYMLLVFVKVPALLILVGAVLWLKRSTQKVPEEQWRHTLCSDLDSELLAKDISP

T2: human CD300A-Fc (human)
T2 construct: hIgG1-Fc fusion; the entry is the whole fusion chain
T2 chain: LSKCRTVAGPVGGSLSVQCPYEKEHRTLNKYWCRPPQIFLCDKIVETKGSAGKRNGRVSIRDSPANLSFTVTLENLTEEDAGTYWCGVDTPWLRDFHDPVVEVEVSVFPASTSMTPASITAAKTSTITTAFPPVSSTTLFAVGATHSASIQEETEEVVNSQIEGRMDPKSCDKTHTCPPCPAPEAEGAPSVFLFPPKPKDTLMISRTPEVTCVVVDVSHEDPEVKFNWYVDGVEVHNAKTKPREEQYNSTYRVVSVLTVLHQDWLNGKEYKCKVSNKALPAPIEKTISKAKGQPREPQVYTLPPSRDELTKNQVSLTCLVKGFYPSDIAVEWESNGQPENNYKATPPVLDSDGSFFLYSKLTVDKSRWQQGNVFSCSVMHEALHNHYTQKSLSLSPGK

T3: murine CD300C-Fc (mouse)
T3 construct: mouse IgG2a-Fc fusion (R&D Systems); the entry is the whole fusion chain; also called mCD300C; Mouse CD300C-Fc
T3 chain: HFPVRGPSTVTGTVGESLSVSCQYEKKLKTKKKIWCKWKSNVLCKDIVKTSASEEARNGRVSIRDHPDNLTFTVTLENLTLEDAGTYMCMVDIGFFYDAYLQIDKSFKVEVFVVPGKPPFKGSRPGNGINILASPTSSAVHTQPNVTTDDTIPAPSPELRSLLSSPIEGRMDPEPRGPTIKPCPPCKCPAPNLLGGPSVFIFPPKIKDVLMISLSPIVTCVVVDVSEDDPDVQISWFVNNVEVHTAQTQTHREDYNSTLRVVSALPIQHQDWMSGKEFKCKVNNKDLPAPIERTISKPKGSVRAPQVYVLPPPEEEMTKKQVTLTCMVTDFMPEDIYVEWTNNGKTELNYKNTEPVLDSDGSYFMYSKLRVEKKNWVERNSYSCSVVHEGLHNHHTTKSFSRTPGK


Experiments:
murine CD300A-Fc = target: T4, murine CD300A-Fc (mouse); assay: SPR (Carterra LSA), antibody immobilised, Fc fusion at 300 or 600 nM
T4 construct: hIgG1-Fc fusion; the entry is the whole fusion chain; also called mCD300A; Mouse CD300A-Fc
Method: (§1) Binding of mouse anti-CD300LB IgG1 antibodies of the present disclosure to human and murine CD300 orthologs were evaluated by surface plasmon resonance (SPR) using a Carterra LSA instrument (Carterra, Salt Lake City, UT). […] A HC200M sensor chip (Carterra) was activated using the single channel flow cell with a 7-minute injection of a 1:1:1 mixture of 100 mM MES pH 5.5, 100 mM sulfo-NHS, 400 mM EDC (all reconstituted in MES pH 5.5; 100 μL of each mixed in vial immediately before running assay). After switching to the multi-channel array flow cell, the antibodies were injected over the activated chip in a 96-spot array for 10 minutes. The remaining unconjugated active groups on the chip were then blocked by injecting 1M Ethanolamine pH 8.5 (Carterra) for 7 minutes using the single channel flow cell. After priming with running buffer (HBS-TE, Carterra) with 0.5 mg/ml BSA (Sigma), the immobilized anti-CD300LB antibodies were tested for their ability to bind human and mouse recombinant CD300LB extracellular domains. Human CD300 family members and mouse CD300A were hIgG1-Fc fusions, while mouse CD300LB, mouse CD300C, mouse CD300D, and mouse CD300E were mouse IgG2a-Fc fusions (R&D Systems). Binding was assessed by injecting each analyte over the entire antibody array using the single channel flow cell. CD300 analytes were diluted to 300 nM or 600 nM in running buffer and injected in series without regeneration. Two or three buffer blanks were run between each mouse or human ortholog, respectively. Data were processed and analyzed using NextGenKIT high-throughput kinetics analysis software (Carterra).
(§2) Results of anti-CD300LB antibody binding to murine CD300 family members is provided below in Table 8.

[1] = target: T1, murine CD300LB on wild type mouse bone …; assay: flow cytometry, wild type mouse bone marrow macrophages, 10 ug/mL, isotype subtracted
Method: To further examine the specificity of the anti-CD300LB antibodies to muCD300LB, bone marrow macrophages (BMM) from wild type (WT) and CD300LB knockout mice (KO) were analyzed for antibody binding by flow cytometry. Bone marrow from these mice was harvested and plated into three 20 cm PETRI dishes in complete media containing 50 ng/mL murine M-CSF (Peprotech). Media was changed every three days until day 6, when cells were harvested. Cells were detached with PBS 3 mM EDTA, washed and counted and plated at 100,000 cells/well in a 96 well plate. Cells were incubated with murine Fc block (Clone 2.4G2, BD) then with 10 μg/mL anti-CD300LB antibodies for 30 minutes on ice. […] Cells were washed twice more with 150 μL FACS buffer then resuspended to 100 μL in FACS buffer analyzed using a BD Canto II flow cytometer to calculate the geometric MFI minus the gMFI of the isotype control. Dead cells were stained with live/dead staining kit (Invitrogen).

human CD300A-Fc = target: T2, human CD300A-Fc; assay: SPR (Carterra LSA), antibody immobilised
Text: In addition to the screening of antibodies for cross-reactivity by FACS analysis, surface plasmon resonance (SPR) analysis was used to determine the binding of antibodies to recombinant huCD300 and muCD300 family members (orthologs) conjugated to an Fc (human CD300A-Fc SEQ ID NO:144; human CD300LB-Fc SEQ ID NO:145; human CD300C-Fc SEQ ID NO: 146; human CD300D-Fc SEQ ID NO: 147; human CD300E-Fc SEQ ID NO: 148; human CD300F-Fc SEQ ID NO: 149; murine CD300A-Fc SEQ ID NO: 150; murine CD300LB-Fc SEQ ID NO:151; murine CD300C-Fc SEQ ID NO: 152; murine CD300D-Fc SEQ ID NO: 153, and murine CD300E-Fc SEQ ID NO: 154).
as §1

murine CD300C-Fc = target: T3, murine CD300C-Fc; assay: SPR (Carterra LSA), antibody immobilised, Fc fusion at 300 or 600 nM
Method: as §1, §2

T4 sequence (chain, as listed by the source limits assumed): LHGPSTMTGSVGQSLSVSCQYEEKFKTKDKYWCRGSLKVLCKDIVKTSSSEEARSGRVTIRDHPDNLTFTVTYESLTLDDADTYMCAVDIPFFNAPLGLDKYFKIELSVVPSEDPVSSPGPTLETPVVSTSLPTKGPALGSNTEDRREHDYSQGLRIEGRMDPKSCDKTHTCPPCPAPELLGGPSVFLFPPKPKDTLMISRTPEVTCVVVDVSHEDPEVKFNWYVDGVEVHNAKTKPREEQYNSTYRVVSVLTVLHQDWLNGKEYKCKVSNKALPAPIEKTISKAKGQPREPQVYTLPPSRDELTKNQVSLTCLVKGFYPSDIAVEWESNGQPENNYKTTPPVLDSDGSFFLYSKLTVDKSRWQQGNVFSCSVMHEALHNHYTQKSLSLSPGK

Row | SPR binding (control subtracted) (murine CD300A-Fc) | gMFI [1] | binding result (human CD300A-Fc) | SPR binding (control subtracted) (murine CD300C-Fc) | Binder
1 | -2.5 | 192 gMFI | – | – | anti-CD300LB antibody CD-10 (antibody, V domains shown) VH: QVQLQQSGPELVRPGVSVKISCKGSGYTFTDYAMHWVKQSHVRSREWIGVIGTYNGHTNYNQKFKGKATMTVDKSSSTAYLELARLTSEDSAIYYCARSGSYYYSMDYWGQGTSVTVSS VL: QIVLTQSPAIMSASPGEKVTMTCSASSSVNYMHWYQQKSGTSPKRWIYDTSKLSSGVPARFSGSGSGTSYSLTISTMEAEDAATYYCQQWSSNPPMTFGGGTKLEIK
2 | -2.1 | 349 gMFI | – | – | anti-CD300LB antibody CD-11 (antibody, V domains shown) VH: QIQLVQSGPEVKKPGETVKISCKASGYTLTDYSMHWVMQTPGTGLKWMAWMNTETGEPTYADDFKGRFAFSLETSAGTAYLQIDNLKNEDTATYFCATYGKSYGMKYWGQGTSVTVSS VL: DIVLTQSPPSLAVSLGQRATISCRATKSVSPYLHWYQQTPGQPPKLLIYLASNLDSGVPARFSGSGSGTDFTLNIHPVEEEDAATYYCQHNKELPPTFGGGTRLEIK
3 | – | – | no binding (tested: 300 nM or 600 nM) | – | anti-CD300LB antibody CD-01 (antibody, V domains shown) VH: RVQLQQSGAELVRPGASVTLSCKASGFTFTDFEMHWVKKTPVHGLEWIGAIDPESGNTAYNQKFRGKATLTADKSSSTAYMELRYLTSEDSAVYYCTPLISGADYWGQGTTLTVSS VL: DVVMTQSPLSLPVSLGDQASISCRSSQSLVHSDGNTYLYWYLQKPGQSPKLLIYKVSNRFSGVPDRFSGSGSGTDFTFKISRVGAEDLGVYFCSQSTHVPWTFGGGTKLEII
4 | – | – | no binding (tested: 300 nM or 600 nM) | – | anti-CD300LB antibody CD-05 (antibody, V domains shown) VH: QVQLVQSGAEVKKPGASVKVSCKASGYTFSRYYINWVRQAPGQGLEWMGWINPNSGGTNYAQKFQGRVTMTRDTSTSTVYMELSSLRSEDTAVYYCTTDQLRFGKTGPYYGMDVWGQGTTVTVSS VL: DIQMTQSPSSLSASVGDRVTITCRASQNIGTYLNWYQQKPGKAPKLLIYAASSLQSGVPSRFSGSGSGTDFTLTISSLQPEDFATYYCQQSYSDTLTFGGGTKVEIK
5 | 4.2 | 413 gMFI | – | 2.5 | anti-CD300LB antibody CD-12 (antibody, V domains shown) VH: QIQLVQSGPELKKPGETVKISCKASGYTFTDYSMHWVRQAPGKGLKWMAWINTETGEATHADDFKGRFDFSLDTSASTAYLQIKNLKNEDTGIYFCVCYGSSYGMDYWGQGTSVTVSS VL: DIVLTQSPASLPVSLGQRATISCRASKSVRTSGASYMHWYQQKPGQPPKLLIYLASNLKSGVPTRFSGSGSGTDFTLNIHPVEEEDAATYYCQHNREVPPTFGGGTKLEIK
6 | 2.9 | 1230 gMFI | – | 1.5 | anti-CD300LB antibody CD-17 (antibody, V domains shown) VH: QIQLVQSGPELKKPGETVKISCKASGYTLTDYSMHWVKQAPGKGLKWMGWINTETGEPRYGDDFKGRFAFSLETSASSAYLQINNLKNDDTATYFCATYGRSYGMDFWGQGTSVTVSS VL: DIVLTQSPASLAVSLGQRATISCRASKSVSPSGHSYMHWYQQKPGQPPKLLIYLASNLKSGVPARFSGSGSGTDFTLNIHPVEEGDAATYYCQHNRELPPTFGGGSKLEIK
7 | 4.4 | – | – | 43.6 | anti-CD300LB antibody CD-13 (antibody, V domains shown) VH: QIQLVQSGPELKKPGETVKISCKASGYTFTDYSMHWVKQAPGKGFKWMAWINTETGAPTHADDFRGRFAFSLETSASTAFLQISNLKTEDTATYFCVTFGKSYGMNYWGQGTSVTVSS VL: DIVLTQSPASLSVSLGQRATISCRASKSVGSSGSSYLHWYQQKPGQPPKLLIYLASNLESGVPARFSGSGSGTEFTLNIHPVEEEDAATYYCQHNAEVPPTFGGGTKLEIK
8 | 7.1 | 256 gMFI | – | 13.3 | anti-CD300LB antibody CD-15 (antibody, V domains shown) VH: QIQLVQSGPELKKPGETVKISCQVSGYTFTDYSMHWLKQAPGKGLKWMAWINTETGESTYTDEFKGRFVFSLETSVRTAYLKINNLKNEDTATYFCGTYGSSYGMAYWGQGTSVTVSS VL: DIVLTQSPASLPVSLGQRATISCRASKSVSTSGSSYLHWYQQKPGQPPKLLIYLASKLESGVPARFRGSGSGTDFTLNIHPVEEEDAATYYCQHNREVPPTFGGGTKLEIK
9 | -1.9 | 233 gMFI | – | 34.5 | anti-CD300LB antibody CD-16 (antibody, V domains shown) VH: QIQLVQSGPELKKPGETVKISCKASGYTFTDYSMHWVKQAPGKGLKWMAWINTETGEPTYADDFRGRFAFSLETSGRTAYLEINNLRNEDTATYFCVTYGSSYGMAYWGQGTSVTVSS VL: DIVLTQSPASLAVSLGQRATISCRASKSVSRSGYSYLHWYQQKPGQPPKLLIYLASKLESGVPARFSGSGSGTDFTLNIHPVEAEDAATYYCQHNREIPPTFGGGTKLEIK
10 | 2.9 | 1290 gMFI | – | 1.5 | anti-CD300LB antibody CD-18 (antibody, V domains shown) VH: DVQLQESGPDLVKPSQSLSLTCTVTGYSITSGYSWHWIRQFPDNKLEWMGYILSRGDTNFNPSLKSRISITRSTSNNQFFLHFNSVTTEDTATYYCARDFFDYWGQGTTLTVSS VL: DVLMTQTPLSLPVSLGDQASISCRSSQSIVHSNGNTYLEWYLQKPGQSPKLLIYKVSDRFSGVPDRFSGSGSGTDFTLKISRVEAEDLGVYFCFQGSHVPYTFGGGTKLEIK
11 | 2.7 | – | – | 17.9 | anti-CD300LB antibody CD-14 (antibody, V domains shown) VH: QIQLVQSGPELKKPGETVKISCKASGYTFTDYSLHWVKQTPEKNLKWMAWINTETGAPTYADDFKGRFAFSLETSSNTAYLLINNLKNEDTATYFCALTMVNYWGQGTTLTVSS VL: DIVMTQSQKFMSTSVGDRVSVTCKASQNVGIRVAWHQQKPGQSPKTLIYSTSYRYSGVPDRFTGSGSGTEFILTISNVQSEDLAEYFCQQYNSYPYTFGGGTKLEIK
